From US20230050380A1 (CHIOME BIOSCIENCE, published 2023)
Changes are numbered by the printed parent chain.

T1: full-length hCDCP1 with N-terminal c-Myc tag (expression vector GS01), on Ba/F3-hCDCP1 cells or … (human, UniProt Q9H5V8 30-836)
T1 construct: also called human CDCP1; hCDCP1 forced expression cells
T1 sequence: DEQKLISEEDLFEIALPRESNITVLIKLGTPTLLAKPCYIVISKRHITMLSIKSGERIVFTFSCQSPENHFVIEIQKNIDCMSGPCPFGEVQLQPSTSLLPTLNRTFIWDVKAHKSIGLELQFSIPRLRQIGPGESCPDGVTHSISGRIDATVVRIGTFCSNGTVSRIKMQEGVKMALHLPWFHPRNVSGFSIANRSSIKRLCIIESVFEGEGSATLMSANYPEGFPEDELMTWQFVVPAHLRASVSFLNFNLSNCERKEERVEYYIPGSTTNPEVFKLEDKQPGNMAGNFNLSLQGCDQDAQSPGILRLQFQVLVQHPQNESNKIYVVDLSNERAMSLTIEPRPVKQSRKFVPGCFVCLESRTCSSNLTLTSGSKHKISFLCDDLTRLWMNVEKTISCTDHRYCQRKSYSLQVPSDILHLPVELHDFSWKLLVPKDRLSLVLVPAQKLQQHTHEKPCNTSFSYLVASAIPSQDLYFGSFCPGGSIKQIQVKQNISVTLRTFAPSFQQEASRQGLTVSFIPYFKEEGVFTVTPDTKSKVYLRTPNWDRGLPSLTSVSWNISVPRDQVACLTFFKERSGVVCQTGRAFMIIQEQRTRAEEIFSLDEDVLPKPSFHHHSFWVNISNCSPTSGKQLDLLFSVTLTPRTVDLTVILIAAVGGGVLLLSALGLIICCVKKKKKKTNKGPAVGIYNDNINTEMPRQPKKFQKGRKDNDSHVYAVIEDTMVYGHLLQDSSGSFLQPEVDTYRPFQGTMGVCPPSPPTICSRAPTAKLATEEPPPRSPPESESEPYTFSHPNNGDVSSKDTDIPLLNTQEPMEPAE

B1: mh12A041HCori/LCoriA (antibody, human IgG1, kappa, V domains shown)
VH: EVQLQESGPGILQPSQTLSLTCSFSGFSLSTSGMGVSWIRQPSGKGLEWLAHIYWDDDKRYNPSLKSRLTISKDTSSNQVFLKITSVDTADTATYYCARSGSYYGSSLDCWGQGTTLTVSS
VL: DVLMTQTPLSLPVSLGDQASISCRSSQSIVYSNGNTYLEWYLQKPGQSPKLLIYKVSNRFSGVPDRFSGSGSGTDFTLKISRVEAEDLGVYYCFQGSHVPWTFGGGTKLEIRR
notes: mouse-human chimeric antibody, human IgG1/kappa constant regions
B2: mh12A041HCoriA/LCori (antibody, human IgG1, kappa, V domains shown)
VH: B1 VH with S32F
VL: B1 VL with Y31H, R112K
notes: as for B1
B3: mh12A041HCv1/LCori (antibody, human IgG1, kappa, V domains shown)
VH: B1 VH with C110S
VL: B1 VL with Y31H, R112K
notes: as for B1
B4: mh12A041HCoriA/LCoriA (antibody, human IgG1, kappa, V domains shown)
VH: B1 VH with S32F
VL: B1 VL
notes: as for B1
B5: mh12A041HCv1/LCv1 (antibody, human IgG1, kappa, V domains shown)
VH: B1 VH with C110S
VL: B1 VL with Y31H, N33S
notes: as for B1
B6: mh12A041HCv1/LCv2 (antibody, human IgG1, kappa, V domains shown)
VH: B1 VH with C110S
VL: B1 VL with Y31H, G34A
notes: as for B1
B7: mh12A041HCoriA/LCoriB (antibody, human IgG1, kappa, V domains shown)
VH: B1 VH with S32F
VL: B1 VL with S28N, Y31H, N33D
notes: as for B1
B8: mh12A041HCori/LCoriB (antibody, human IgG1, kappa, V domains shown)
VH: B1 VH
VL: B1 VL with S28N, Y31H, N33D
notes: as for B1
B9: mh12A041HCori/LCv1 (antibody, human IgG1, kappa, V domains shown)
VH: B1 VH
VL: B1 VL with Y31H, N33S
notes: as for B1
B10: mh12A041HCori/LCv2 (antibody, human IgG1, kappa, V domains shown)
VH: B1 VH
VL: B1 VL with Y31H, G34A
notes: as for B1
B11: mh14A025HCv1/LCori (antibody, human IgG1, kappa, V domains shown)
VH: EVQLQESGAELVRPGALVKLSCKASGFNIKDYYMHWVKQRPEQGLEWIGWIDPESGNTIYDPKFQGKASITADTSSNTAYLQLSSLTSEDTAVYYCGGLLYAMDYWGQGTSVTVSS
VL: DIQMTQTTSSLSASLGDRVTISCRASQDISNYLNWYQQKPDGTVKLLIYFTSRLHSGVPSRFSGSGSGTDYSLTISNLEQEDIATYFCQQGNTLPRTFGGGTKLEIRR
notes: as for B1
B12: mh14A043HCv1/LCv1 (antibody, human IgG1, kappa, V domains shown)
VH: B11 VH with H35N, G97Y, L99S, L100S, A102R, M103F, D104T, S111L
VL: QIVLIQSPALMSASPGEKVTMTCSASSSVSYLYWYQQKPRSSPKPWIYLTSNLASGVPARFSGSGSGTSYSLTISSMEAEDAATYYCQQWSSNPFTFGSGTKLEIKR
notes: as for B1
B13: mh14A043HCv2/LCv1 (antibody, human IgG1, kappa, V domains shown)
VH: B11 VH with H35N, S55N, G56A, G97Y, L99S, L100S, A102R, M103F, D104T, S111L
VL: B12 VL
notes: as for B1
B14: mh14A025HCv21/LCori (antibody, human IgG1, kappa, V domains shown)
VH: B11 VH with S55T
VL: B11 VL
notes: as for B1
B15: mh14A025HCv7/LCori (antibody, human IgG1, kappa, V domains shown)
VH: B11 VH with S55N, G56E
VL: B11 VL
notes: as for B1
B16: mh14A025HCv24/LCori (antibody, human IgG1, kappa, V domains shown)
VH: B11 VH with S55W
VL: B11 VL
notes: as for B1
B17: mh14A025HCv19/LCori (antibody, human IgG1, kappa, V domains shown)
VH: B11 VH with S55R
VL: B11 VL
notes: as for B1
B18: mh14A025HCv15/LCori (antibody, human IgG1, kappa, V domains shown)
VH: B11 VH with S55N, G56L
VL: B11 VL
notes: as for B1
B19: mh14A043HCori/LCv1 (antibody, human IgG1, kappa, V domains shown)
VH: B11 VH with H35N, S55N, G97Y, L99S, L100S, A102R, M103F, D104T, S111L
VL: B12 VL
notes: as for B1
B20: mh14A043HCv1/LCori (antibody, human IgG1, kappa, V domains shown)
VH: B11 VH with H35N, G97Y, L99S, L100S, A102R, M103F, D104T, S111L
VL: B12 VL with L32M
notes: as for B1
B21: mh14A043HCv2/LCori (antibody, human IgG1, kappa, V domains shown)
VH: B11 VH with H35N, S55N, G56A, G97Y, L99S, L100S, A102R, M103F, D104T, S111L
VL: B12 VL with L32M
notes: as for B1
B22: mh14A025HCv2/LCori (antibody, human IgG1, kappa, V domains shown)
VH: B11 VH with S55N, G56A
VL: B11 VL
notes: as for B1
B23: mh14A025HCv5/LCori (antibody, human IgG1, kappa, V domains shown)
VH: B11 VH with S55N, G56D
VL: B11 VL
notes: as for B1
B24: mh14A025HCv17/LCori (antibody, human IgG1, kappa, V domains shown)
VH: B11 VH with S55N, G56M
VL: B11 VL
notes: as for B1
B25: mh14A025HCv8/LCori (antibody, human IgG1, kappa, V domains shown)
VH: B11 VH with S55F
VL: B11 VL
notes: as for B1
B26: mh14A063HCori/LCv1 (antibody, human IgG1, kappa, V domains shown)
VH: EVQLQESGGGLVQPGGSLKLSCAASGFTFSSYTMSWVRQTPEKRLEWVAYISNGGGSTYYPDTVKGRFTISRDNAKNTLYLQMSSLKSEDTAMYYCARYDLGFAYWGQGTLVTVSS
VL: NIVLTQSPASLAVSLGQRATISCRASESVDSYGNSFLHWYQQKPGQPPKLLIFLASNLESGVPARFSGSGSRTDFTLTIDPVEADDAATYYCQQNNEDPWTFGGGTNLEIKR
notes: as for B1
B27: mh14A063HCv1/LCv1 (antibody, human IgG1, kappa, V domains shown)
VH: B26 VH with N53S
VL: B26 VL
notes: as for B1
B28: mh14A063HCv2/LCv1 (antibody, human IgG1, kappa, V domains shown)
VH: B26 VH with G54A
VL: B26 VL
notes: as for B1
B29: mh14A063HCv2/LCori (antibody, human IgG1, kappa, V domains shown)
VH: B26 VH with G54A
VL: B26 VL with L37M
notes: as for B1
B30: mh14A063HCv1/LCori (antibody, human IgG1, kappa, V domains shown)
VH: B26 VH with N53S
VL: B26 VL with L37M
notes: as for B1

Target: T1, full-length hCDCP1 with N-terminal …
Assay: flow cytometry on Ba/F3-hCDCP1 cells

Binder | binding result
B1 | binds
B2 | binds
B3 | binds
B4 | binds
B5 | binds
B6 | binds
B7 | binds
B8 | binds
B9 | binds
B10 | binds
B11 | binds
B12 | binds
B13 | binds
B14 | binds
B15 | binds
B16 | binds
B17 | binds
B18 | binds
B19 | binds
B20 | binds
B21 | binds
B22 | binds
B23 | binds
B24 | binds
B25 | binds
B26 | binds
B27 | binds
B28 | binds
B29 | binds
B30 | binds
